1 molecule from PMC5847613 (Scientific Reports, 2018) can be followed below.

Common to all, as to settings: both partners purified
The target in test [1] is T1, recombinant HA of pH1N1 A/California/04/2009 (Influenza A virus A/California/04/2009 …, UniProt C3W5S1, strain).
T1 construct: source: bought: Protein Sciences Corp., Meriden, CT
As to the kind of experiment: SPR.

In test [2] the target is recombinant influenza A H1 HA (A/Brisbane/59/07) (Influenza A virus A/Brisbane/59/2007 …, UniProt D5F1Q8, strain). The test can be described thus: ELISA. For orientation: In an ELISA, binding on a coated surface is turned into a signal by an enzyme label.
The target in test [3] is recombinant influenza B HA (B/Brisbane/60/08) (Influenza B virus B/Brisbane/60/2008, UniProt C0LT35, strain). As to the kind of experiment: ELISA.
Test [4] has as its target recombinant HA of A/USSR/1977 H1N1 (Influenza A virus A/USSR/90/1977 …, UniProt P03453, strain). As to the kind of experiment: mPLEX-Flu multiplex fluorescent-bead assay (Luminex).
The target of test [5] is recombinant HA of A/South Carolina/01/1918 H1N1 (Influenza A virus A/South …, UniProt Q9WFX3, strain). The test is described as above.

B1: KPF1 human monoclonal antibody (antibody, V domains shown)
VH: EVQLLESGGGLVQPGGSLRISCAASGSTFGDFAMSWVRQSPGRGLEWVSVTSAGGDRTYYADSVKGRFTISRDNSKNTLYLQMNSLRGEDTAMYYCARLDSSGFHYGRPGRNWGQGTLVTVSS
VL: DIQMTHSPPSLSASVGDRITITCQASQDISYYLIWYQQKPGKAPKPLIYDASNLEAGVPSRFSASGSGTDFTLTISSLQPEDLATYYCQQYKSLPYTFGQGTKLEIK
notes: also called KPF1 hmAb; hmAb KPF1
A word on the Kd: it is the constant that tells how readily two partners part at equilibrium. As to B1, the Kd in test [1] was determined as 0.178 nM. In addition, the binding result is on record as “binds” in test [2], “no binding” in test [3], “no binding (tested: 1 μg/ml)” in test [4] and “binds” in test [5].
